Reference: patent US8227193 (University of California, dated 2012)

Target: T1, human p52 DNA-binding domain (p52 DBD) (human, UniProt Q00653 1-340)
T1 construct: Expressed in E. coli from pET11a, without a poly-His tag; also called p52 RHD; NF-kB2/p52 Rel homology domain
T1 sequence: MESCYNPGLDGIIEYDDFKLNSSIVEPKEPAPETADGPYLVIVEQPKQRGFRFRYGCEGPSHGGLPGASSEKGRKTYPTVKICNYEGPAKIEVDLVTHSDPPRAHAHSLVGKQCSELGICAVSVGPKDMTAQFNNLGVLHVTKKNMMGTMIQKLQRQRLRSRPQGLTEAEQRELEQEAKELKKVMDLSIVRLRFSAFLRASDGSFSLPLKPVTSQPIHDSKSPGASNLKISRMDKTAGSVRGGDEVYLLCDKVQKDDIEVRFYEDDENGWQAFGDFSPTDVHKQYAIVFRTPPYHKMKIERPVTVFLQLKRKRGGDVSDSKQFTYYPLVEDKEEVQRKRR
Experiment: co-refolding from 7 M urea (1:1.2 molar ratio), Ni-affinity capture through the His tag of RelB DBD (uncomplexed p52 DBD flows through), size exclusion; both proteins confirmed by western blotting
Procedure: His-RelB DBD and p52 DBD that had been purified as described above were mixed together in 1:1.2 molar ratio (i.e., with excess p52 DBD) and diluted to ~0.4 mg/ml concentration in a denaturing buffer B (7 M urea, 0.5 M NaCl, 20 mM Tris pH 7.5, 5 mM DTT, 10% glycerol). The denatured protein mixture (100 ml total volume that contained 40 mg total protein) was refolded by slowly removing urea by dialysis. The sample was subjected to dialysis against 2 L buffer C (buffer C was the same as buffer B except it lacked urea) for 6 hours. The dialysis step was repeated two more times. After dialysis, the refolded heterodimer was loaded onto the Ni-affinity column. Excess, uncomplexed p52 DBD flows through the column because it has no poly-His tag to bind Ni-affinity matrix. The heterodimer was eluted with imidazole. The eluate was concentrated and further purified using size exclusion chromatography (Superdex 200, Pharmacia). Fractions containing the heterodimer were pooled and concentrated. The presence of both proteins was confirmed by standard western blotting.

B1: poly histidine tagged murine RelB DNA-binding domain (His-RelB DBD) (other)
chain: MPSRRAARESAPELGALGSSDLSSLSLTVSRTTDELEIIDEYIKENGFGLVGTQLSEMPRLVPRGPASLSSVTLGPAAPPPPATPSWSCTLGRLVSPGPCPRPYLVITEQPKQRGMRFRYECEGRSAGSILGESSTEASKTQPAIELRDCGGLREVEVTACLVWKDWPHRVHPHSLVGKDCTDGVCRVRLRPHVSPRHSFNNLGIQCVRKKEIEAAIERKIQLGIDPYNAGSLKNHQEVDMNVVRICFQASYRDQQGHLHRMDPILSEPVYDKKSTNTSELRICRINKESGPCTGGEELYLLCDKVQKEDISVVFSTASWEGRADFSQADVHRQIAIVFKTPPYEDLEISEPVTVNVFLQRLTDGVCSEPLPFTYLPRDHDSYGVDKKRKRGLPDVLGEL
notes: Expressed in E. coli from pET15b as a poly histidine fusion protein; also called RelB RHD; RelB Rel homology domain; not shown: poly-histidine tag from vector pET15b (Novagen)
binding result: binds
